Numbering of substitutions follows the chain as printed. In names and notes the source's numbering stands.
B1: F10 scFv (wild type) (scFv, V domains shown)
VH: QVQLVQSGAEVKKPGSSVKVSCTSSEVTFSSFAISWVRQAPGQGLEWLGGISPMFGTPNYAQKFQGRVTITADQSTRTAYMDLRSLRSEDTAVYYCARSPSYICSGGTCVFDHWGQGTLVTVSS
VL: QPGLTQPPSVSKGLRQTATLTCTGNSNNVGNQGAAWLQQHQGHPPKLLSYRNNDRPSGISERFSASRSGNTASLTITGLQPEDEADYYCSTWDSSLSAVVFGGGTKLTVL
B2: F10 Y98A scFv (scFv, V domains shown)
VH: B1 VH with Y102A
VL: B1 VL
B3: CR6261 Y98A scFv (scFv, V domains shown)
VH: EVQLVESGAEVKKPGSSVKVSCKASGGPFRSYAISWVRQAPGQGPEWMGGIIPIFGTTKYAPKFQGRVTITADDFAGTVYMELSSLRSEDTAMYYCAKHMGAQVRETMDVWGKGTTVTVSS
VL: QSVLTQPPSVSAAPGQKVTISCSGSSSNIGNDYVSWYQQLPGTAPKLLIYDNNKRPSGIPDRFSGSKSGTSATLGITGLQTGDEANYYCATWDRRPTAYVVFGGGTKLTVL
B4: CR6261 F54A scFv (scFv, V domains shown)
VH: B3 VH with F55A, A102Y
VL: B3 VL
B5: CR6261 scFv (wild type) (scFv, V domains shown)
VH: B3 VH with A102Y
VL: B3 VL
B6: A66 germline CDR-H2 variant (IIPIFGTA) scFv (scFv, V domains shown)
VH: QVQLVQSGAEVKKPGSSVKVSCKASGGPFSMTAFTWLRQAPGQGLEWMGGIIPIFGTAKYAQKFQGRVTITADESTNTANMELTSLKSEDTAVYYCARTLSSYQPNNDAFAIWGQGTMVTVSS
VL: EIVLTQSPATLSLSPGERATLSCRASQSVSSYLAWYQQKPGQAPRLLIYDASNRATGIPARFSGSGSGTDFTLTISRLEPEDFAVYFCQQYGSSPQFGQGTRLEIK
B7: A66 CDR-H2 variant IIPIFRTA (germline CDR-H2 with Arg55 restored) scFv (scFv, V domains shown)
VH: B6 VH with G56R
VL: B6 VL
B8: A66 scFv (wild type) (scFv, V domains shown)
VH: B6 VH with I52S, G56R, A58P
VL: B6 VL
B9: A66 CDR-H2 variant ISPIFGTA (germline CDR-H2 with Ser52 restored) scFv (scFv, V domains shown)
VH: B6 VH with I52S
VL: B6 VL
B10: F10 CDR-H2 variant ISPIFGTA (germline CDR-H2 with Ser52 restored) scFv (scFv, V domains shown)
VH: B1 VH with M54I, P58A
VL: B1 VL
B11: F10 CDR-H2 variant IIPMFGTA (germline CDR-H2 with Met53 restored) scFv (scFv, V domains shown)
VH: B1 VH with S52I, P58A
VL: B1 VL

Each binder was assayed against T1, H5VN04 trimeric HA (recombinant hemagglutinin) (influenza A virus (H5VN04), UniProt Q6DQ33) (assay: SPR).

Binder	Kd [nM]
B1	0.1
B2	350
B3	1600
B4	290
B5	0.34

Target: T1, H5VN04 trimeric HA (recombinant …)
Assay: SPR
Remark: another data set of the same source

Binder	koff [s⁻¹]
B1	3.5e-05
B2	0.097
B3	0.027
B4	0.0073
B5	0.00012

Target: T1, H5VN04 trimeric HA (recombinant …)
Assay: SPR
Remark: another data set of the same source

Binder	Kd [nM]
B6	4.2
B7	3.2
B8	0.11
B9	1.1
B10	1.2
B11	270

Target: T1, H5VN04 trimeric HA (recombinant …)
Assay: SPR
Remark: another data set of the same source

Binder	koff [s⁻¹]
B6	0.0049
B7	0.0034
B8	5e-05
B9	0.00023
B10	0.00025

— paper PMC4006906 (2014)
